This is an account of results in patent US20180016324A1 (Regeneron, published 2018).

Numbering of substitutions follows the chain as printed.

In test [1] the target is T1, ZIKV prM/E polyprotein on virus-like particles (VLPs) from HEK293T/17 cells (Zika virus, UniProt A0A024B7W1 123-795).
T1 construct: also called ZIKV prM/E VLPs; Zika prM/E VLPs
In words: MSD ECL, VLPs on plate.

Test [2] concerns the target T2, ZIKV (prM80E) with a C-terminal myc-myc-hexahistidine tag (Zika virus, UniProt A0A024B7W1 104-694).
T2 construct: also called ZIKV (prM80E)-mmH; ZIKV-mmH
Put plainly: SPR, mAb captured, 37C.

Test [3] concerns the target T2, ZIKV (prM80E) with a C-terminal …. Put plainly: SPR, mAb captured, 37C. This is another data set of the same source.
Test [4] shares this target. Put plainly: SPR, mAb captured, 25C.
The target is the same in test [5]. In words: SPR, mAb captured, 37C. The source holds these as a separate data set.
Test [6] deals with ZIKV envelope glycoprotein (E) of strain MR766 (Uganda 1947) (Zika virus, UniProt Q32ZE1 291-790). In words: cell-based or functional assay.
For test [7], the target named is ZIKV envelope glycoprotein (E) of strain PRVABC59 (Puerto Rico 2015) (Zika virus). In words: cell-based or functional assay.
Test [8] deals with ZIKV envelope glycoprotein (E) of strain FLR (Colombia 2015) (Zika virus). In words: cell-based or functional assay.
Test [9] addresses T2, ZIKV (prM80E) with a C-terminal …. In words: SPR, mAb captured, 37C, pH 7.4.
The target is the same in test [10]. In words: SPR, mAb captured, 37C, pH 6.0 chase.
Test [11] shares this target. Put plainly: SPR, mAb captured, 37C, pH 5.0 chase.
Test [12] has the same target. In words: SPR, mAb captured, 37C, pH 5.5 chase.

B1: H4H25637P (antibody, V domains shown)
VH: QLQLQESGPGLVKPSETLSLTCTVSGDSISSSNYFWGWIRQPPGKGLEWIGNIYYSGDTYYNPSLKSRVTMSVDTSKKQFSLKLRSVTAADTAVYYCARGRPYYDFWSGYFDYWGQGTLVTVSS
VL: EIVLTQSPGTLSLSPGERATLPCRASQSVSSSYLAWYQQKPGQAPRLLIYGASSRATGIPDRFRGSGSGTDFTLTISRLEPEDFAVYYCQQYGTAPWTFGQGTKVEIK
B1 came in with an EC50 in test [1] of 0.322 nM. Besides, in [2], the “t½ pH 7.4/t½ pH 6.0” value is 0.3. Moreover, in test [3], the “t½ pH 7.4/t½ pH 5.0” value was determined as 0.2. Moreover, the “t½ pH 7.4/t½ pH 5.5” value in test [3] turned out to be 0.4. Moreover, the Kd came out at 6.33 nM in test [4] and 9.97 nM in [5]. Further, the koff stood at 0.00391 s⁻¹ in test [4]; 0.00989 s⁻¹ in test [5]; 0.0118 s⁻¹ in test [9]; 0.00392 s⁻¹ in test [10]; 0.00228 s⁻¹ in test [11]; 0.00414 s⁻¹ in [12]. In addition, the kon in test [4] worked out at 617000 M⁻¹ s⁻¹; in test [5] it was 992000 M⁻¹ s⁻¹. Moreover, the t½ came out at 3 min in test [4]; 1.2 min in test [5]; 0.98 min in [9]; 2.95 min in [10]; 5.1 min in test [11]; 2.79 min in test [12]. Also, the “neutralization IC50, Vero cells” value in test [6] stood at 0.0671 nM; in test [7], 0.239 nM; in test [8], 0.134 nM.

B2: H4H25591P (antibody, V domains shown)
VH: QVQLVESGGGVVQPGRSLRLSCAASGFTFSYSGMHWVRQAPGKGLEWVAVISYDGINKYYADSVKGRFTISRDNSKNTLYLQMNSLRPEDTAVYYCAKDRGGRFDPWGQGTLVTVSS
VL: DIQMTQSPSSLSASVGDRVTITCRASQGISNYLAWYQQKPGKVPNLLIYGASTLHSGVPSRFSGSGSGTDFTLTISSLQPADVATYYCQKYNSAPLTFGGGTKVEIK
Consider B2, for which, in test [1], the midpoint of the response, the EC50, lay at 0.102 nM. In addition, the “t½ pH 7.4/t½ pH 6.0” value in [2] stood at 2.2. In [3], the “t½ pH 7.4/t½ pH 5.0” value was found to be 2.4. Besides, the “t½ pH 7.4/t½ pH 5.5” value in test [3] stood at 2.9. The Kd is 4.9 nM in [4] and 8.37 nM in test [5]. Besides, the koff amounted to 0.00318 s⁻¹ in [4]; 0.00682 s⁻¹ in [5]; 0.0063 s⁻¹ in test [9]; 0.0136 s⁻¹ in [10]; 0.0148 s⁻¹ in [11]; 0.0184 s⁻¹ in test [12]. The results for the kon in test [4] and in test [5] were 649000 M⁻¹ s⁻¹ and 816000 M⁻¹ s⁻¹, respectively. Further, the t½ was found to be 3.6 min in test [4]; 1.7 min in test [5]; 1.83 min in test [9]; 0.85 min in test [10]; 0.8 min in test [11]; 0.63 min in test [12]. The “neutralization IC50, Vero cells” value in test [6] was found to be 0.0343 nM; in test [7] it was 0.254 nM; in [8], 0.33 nM.

B3: H4H25641P (antibody, V domains shown)
VH: B2 VH with S32Y, G55A, I56S, K58N, A61V, P88A, R100Y, P106Y
VL: EIVLTQSPGTLSLSPGERATLSCGASQSVSSYLAWYQQKPGQTPRLLIYGASSRATGIPDRFSGSGSGTDFTLTISRLEPEDFAVYYCQQYGSSPWTFGQGTKVEIK
As for B3, the EC50 in [1] is 2.87 nM. Moreover, in [2], the “t½ pH 7.4/t½ pH 6.0” value is 0.8. For the same molecule, in test [3], the “t½ pH 7.4/t½ pH 5.0” value came out at 0.7. The “t½ pH 7.4/t½ pH 5.5” value in test [3] turned out to be 1.1. Besides, the Kd came to 8.75 nM in [4] and 11.9 nM in test [5]. Further, the koff in test [4] worked out at 0.00922 s⁻¹; in test [5], 0.0188 s⁻¹; in test [9], 0.0191 s⁻¹; in test [10], 0.0159 s⁻¹; in test [11] it was 0.0133 s⁻¹; in test [12], 0.0204 s⁻¹. The kon turned out to be 1.05e+06 M⁻¹ s⁻¹ in test [4] and 1.59e+06 M⁻¹ s⁻¹ in [5]. For the same molecule, the t½ in test [4] was 1.3 min; in test [5], 0.6 min; in [9] it was 0.61 min; in test [10] it was 0.73 min; in test [11], 0.9 min; in [12], 0.57 min. Moreover, the “neutralization IC50, Vero cells” value worked out at 0.0371 nM in test [6], 0.356 nM in test [7] and 0.212 nM in [8].

B4: H4H25592P (antibody, V domains shown)
VH: B2 VH with I56S, K76N, T78I, P88A, R100W
VL: B2 VL with N31S, K39I, N45K, G50A
Regarding B4, the EC50 in test [1] came out at 0.213 nM. Further, the “t½ pH 7.4/t½ pH 6.0” value in [2] turned out to be 2.9. Moreover, in [3], the “t½ pH 7.4/t½ pH 5.0” value is 3.8. In addition, in [3], the “t½ pH 7.4/t½ pH 5.5” value stood at 4.2. The Kd came out at 0.502 nM in [4] and 1.02 nM in test [5]. Also, the koff in test [4] is 0.000676 s⁻¹; in test [5], 0.00165 s⁻¹; in test [9] it was 0.00174 s⁻¹; in test [10] it was 0.00503 s⁻¹; in test [11] it was 0.00658 s⁻¹; in [12], 0.00736 s⁻¹. In addition, the results for the kon in test [4] and in test [5] were 1.35e+06 M⁻¹ s⁻¹ and 1.61e+06 M⁻¹ s⁻¹, respectively. Further, the t½ in test [4] was 17.1 min; in test [5] it was 7 min; in test [9] it was 6.63 min; in test [10], 2.3 min; in test [11] it was 1.8 min; in [12] it was 1.57 min. The results for the “neutralization IC50, Vero cells” value in test [6], in test [7] and in [8] were 0.0426 nM, 0.218 nM and 0.553 nM, respectively.

B5: H4H25598P (antibody, V domains shown)
VH: EVQLVESGGGLVQPGGSLRLSCAASGFTVSSNYMSWVRQAPGSGLEWVSVIYSGGITHYIGSVKGRFTISRHNSKNTLYLQMNSLRAEDTAMYYCARERYSGITGNPYGFDFWGQGTMVTVSS
VL: DIQLTQSPSFLSASVGDRVTITCWASQDISSYLAWYQQKPGIAPKLLIYSASTLQSGVPSSFSGSGSGTEFTLTISSLQPEDFATYYCQQLNIYPFTFGPGTKVDIK
Regarding B5, in [1], the EC50 came out at 0.426 nM. Moreover, in test [2], the “t½ pH 7.4/t½ pH 6.0” value turned out to be 32.4. For the same molecule, the “t½ pH 7.4/t½ pH 5.0” value in test [3] came out at 288. Further, in test [3], the “t½ pH 7.4/t½ pH 5.5” value worked out at 187. In addition, the results for the Kd in test [4] and in [5] were 0.156 nM and 0.7 nM, respectively. Further, the koff in test [4] was 4.49e-05 s⁻¹; in test [5], 0.000284 s⁻¹; in test [9], 0.000397 s⁻¹; in test [10], 0.0129 s⁻¹; in test [11], 0.114 s⁻¹; in test [12] it was 0.0741 s⁻¹. Moreover, the figures for the kon in test [4] and in test [5] were 289000 M⁻¹ s⁻¹ and 406000 M⁻¹ s⁻¹, respectively. Moreover, the t½ turned out to be 257 min in test [4]; 40.7 min in [5]; 29.1 min in test [9]; 0.9 min in [10]; 0.1 min in test [11]; 0.16 min in test [12]. Moreover, the “neutralization IC50, Vero cells” value in test [6] stood at 0.0545 nM; in test [7] it was 0.398 nM; in test [8], 0.553 nM.

B6: H4H25602P (antibody, V domains shown)
VH: B5 VH with I60V, G61D, F112I
VL: B5 VL with S50A, S61R
In turn, B6 registered an EC50 in test [1] of 1.56 nM. For the same molecule, the “t½ pH 7.4/t½ pH 6.0” value in test [2] came to 34.1. Besides, in [3], the “t½ pH 7.4/t½ pH 5.0” value stood at 272. Further, the “t½ pH 7.4/t½ pH 5.5” value in test [3] was 134. For the same molecule, the figures for the Kd in [4] and in test [5] were 0.07 nM and 0.745 nM, respectively. Besides, the koff is 1.95e-05 s⁻¹ in test [4]; 0.000284 s⁻¹ in test [5]; 0.000356 s⁻¹ in test [9]; 0.0122 s⁻¹ in test [10]; 0.097 s⁻¹ in test [11]; 0.0476 s⁻¹ in test [12]. Moreover, the kon stood at 286000 M⁻¹ s⁻¹ in test [4] and 381000 M⁻¹ s⁻¹ in test [5]. Moreover, the t½ in test [4] is 592 min; in test [5], 40.6 min; in test [9] it was 32.5 min; in test [10], 0.95 min; in [11] it was 0.1 min; in test [12] it was 0.24 min. For the same molecule, the “neutralization IC50, Vero cells” value came out at 0.0531 nM in test [6], 0.501 nM in [7] and 0.63 nM in test [8].
